Measured values as given in the supplement of paper PMC10567573.

B1: TRIM55 (parent)
chain: YKSFSKEQQTMDNLEKQLICPICL
B2: TRIM55 (parent)
chain: ICPICLEMFTKPVVILPCQHNLCR

Variants of: B1
Assay: protein stability index of a GFP-peptide fusion (GPS, HEK-293T) (PSI 1-6); higher = more stable
Settings: c terminus: a fixed tail appended
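Note: lentivirally expressed fusions sorted by FACS into six bins by GFP to DsRed ratio, PSI derived from sequencing read proportions per bin multiplied by bin number.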

Variant | protein stability index
K6Q | 2.29
K6I | 1.85
M11S | 2.29
M11F | 2.24
C20K | 1.88
D12Q | 2.1
D12V | 1.89
S3M | 1.85
S3H | 2.45
N13P | 2.03
N13Q | 2.53
S5H | 1.81
E7N | 2.18
F4P | 2.9
F4A | 2.74
F4S | 2.64
T10I | 1.65
T10V | 2.04
Q9F | 1.79
L18E | 3.19

Variants of: B2
Assay: as above
Settings: c terminus: a fixed tail appended

Variant | protein stability index
K11E | 2.83
K11I | 2.29
K11Y | 1.69
K11C | 2.51
K11R | 1.87
K11Q | 2.6
K11V | 1.98
K11L | 1.9
K11T | 2.26
K11H | 2.4
K11S | 2.67
K11M | 1.94
K11P | 2.35
K11G | 2.56
K11F | 2.2
K11D | 3.28
K11A | 3.04
K11N | 2.32
K11W | 1.93
C2P | 1.93
C2H | 1.96
C2G | 1.77
C2Y | 2.49
C2T | 1.6
C2Q | 1.73

Variant | protein stability index
C2K | 2.15
C2V | 2.11
C2N | 1.78
C2M | 1.67
C2S | 2.55
C2E | 2.05
C2A | 2.31
C2L | 2.04
C2I | 1.56
C2D | 1.96
C2F | 2.02
C2W | 1.22
C2R | 2.03
T10H | 2.27
T10E | 2.59
T10M | 2.3
T10L | 2.59
T10G | 2.25
T10I | 1.83
T10W | 2.27
T10V | 1.56
T10F | 1.74
T10N | 2.73
T10Y | 2.06
T10S | 2.74

Variant | protein stability index
T10D | 2.48
T10P | 2.46
T10C | 2.08
T10R | 2.38
T10K | 2.34
T10A | 2.23
T10Q | 3.09
L16G | 3.03
L16F | 2.12
L16C | 2.4
L16D | 2.61
L16P | 3.02
L16R | 2.24
L16W | 2.38
L16M | 2.38
L16S | 2.4
L16A | 2.56
L16H | 2.86
L16Y | 2.39
L16N | 2.67
L16I | 2.05
L16Q | 2.62
L16K | 2.58
L16T | 2.77
L16V | 2.68

Variant | protein stability index
L16E | 2.35
E7P | 2.13
E7R | 2.24
E7H | 2.29
E7I | 1.94
E7L | 2.47
E7G | 2.52
E7C | 1.92
E7S | 2.19
E7W | 1.89
E7K | 1.87
E7Q | 2.42
E7N | 1.53
E7M | 2.09
E7V | 1.42
E7T | 1.85
E7A | 2.3
E7D | 2.35
E7F | 2.24
E7Y | 2.07
F9I | 2.77
F9P | 2.85
F9K | 3.63
F9M | 2.51
F9Y | 2.18

Variant | protein stability index
F9R | 2.18
F9S | 2.75
F9H | 2.82
F9Q | 2.49
F9V | 2.86
F9E | 3.15
F9W | 2.47
F9G | 2.52
F9L | 2.47
F9C | 2.81
F9A | 2.64
F9N | 2.75
F9T | 3.07
F9D | 3.1
C5W | 1.6
C5Y | 2.3
C5P | 2.07
C5N | 2.01
C5M | 2.09
C5A | 1.93
C5R | 1.22
C5H | 1.15
C5G | 1.8
C5F | 1.57
C5T | 1.73

Variant | protein stability index
C5Q | 1.18
C5D | 2.05
C5V | 2.14
C5E | 2.28
C5S | 2.38
C5K | 3.33
C5L | 1.72
L6F | 2.48
L6T | 2.51
L6G | 2.25
L6Q | 1.99
L6I | 2.32
L6Y | 2.34
L6W | 2.77
L6S | 2.52
L6H | 2.38
L6V | 1.95
L6N | 2.94
L6C | 2.39
L6A | 2.03
L6R | 2.22
L6E | 3.49
L6D | 2.79
L6K | 2.81
L6M | 2.45

Variant | protein stability index
L6P | 2.69
M8Y | 2.82
M8R | 2.42
M8S | 2.59
M8V | 2.17
M8A | 2.76
M8P | 2.71
M8L | 1.66
M8F | 2.55
M8K | 2.98
M8D | 3.58
M8Q | 3.31
M8H | 2.76
M8E | 2.59
M8N | 1.9
M8T | 2.73
M8G | 2.11
M8C | 2.44
M8W | 3.09
M8I | 2.63
I4K | 2.74
I4D | 2.49
I4A | 2.07
I4Y | 2.69
I4H | 2.26

Variant | protein stability index
I4G | 2.03
I4P | 1.94
I4E | 2.33
I4Q | 3.02
I4S | 2.72
I4N | 2.25
I4R | 2.87
I4W | 2.34
I4L | 1.78
I4C | 1.83
I4T | 2.31
I4V | 2.51
I4M | 1.86
I4F | 2.67
V14I | 2.4
V14T | 2.63
V14W | 1.89
V14E | 3.02
V14Y | 2.15
V14K | 2.33
V14M | 2.98
V14N | 2.93
V14C | 2.32
V14Q | 2.59
V14G | 2.54

Variant | protein stability index
V14A | 2.56
V14F | 2.49
V14P | 2.56
V14D | 3.31
V14R | 2.47
V14S | 3.12
V14L | 2.29
V14H | 2.82
P17H | 2.35
P17D | 2.27
P17F | 2.53
P17L | 2.44
P17G | 1.83
P17A | 1.97
P17I | 2.18
P17M | 1.7
P17K | 1.93
P17E | 2.62
P17C | 1.8
I1M | 2.44
I1C | 2.36
I1Y | 1.92
I1K | 2.75
I1G | 2.46
I1H | 2.62

Variant | protein stability index
I1W | 2.59
I1T | 2.51
I1V | 2.4
I1L | 2.72
I1A | 2.56
I1Q | 3.01
I1F | 2.58
I1R | 2.75
I1D | 2.75
I1N | 2.55
I1S | 2.72
I1P | 2.19
I1E | 2.85
V13P | 2.23
V13C | 2.21
V13R | 2.19
V13G | 2.84
V13S | 2.58
V13K | 2.15
V13D | 3.31
V13M | 2.33
V13I | 2.11
V13T | 2.62
V13A | 2.37
V13H | 2.63

Variant | protein stability index
V13L | 2.26
V13Q | 3.49
V13Y | 1.99
V13E | 2.61
V13F | 2.31
V13W | 1.89
V13N | 2.92
P3T | 2.45
P3G | 1.26
P3C | 1.63
P3M | 2.07
P3Y | 1.27
P3R | 1.27
P3A | 1.27
P3V | 2.21
P3N | 2.13
P3L | 2.17
P3I | 3.07
P3D | 2.53
P3H | 2.35
P3S | 1.75
P3Q | 1.2
P3E | 2.21
P3K | 1.66
P3W | 1.9

Variant | protein stability index
P3F | 1.6
I15L | 2.6
I15Y | 2.02
I15N | 2.5
I15P | 2.69
I15M | 2
I15E | 3.32
I15K | 2.09
I15W | 1.85
I15S | 2.74
I15H | 2.38
I15T | 2.88
I15Q | 3.22
I15R | 2.18
I15F | 2.32
I15C | 2.71
I15V | 2.14
I15D | 2.81
I15G | 2.53
I15A | 2.84
P12F | 1.55
P12Q | 2.43
P12M | 2.25
P12H | 2.04
P12N | 2.99

Variant | protein stability index
P12V | 2.29
P12W | 1.97
P12G | 2.25
P12C | 2.42
P12R | 2.05
P12D | 2.61
P12A | 2.19
P12S | 2.59
P12T | 2.34
P12L | 2.02
P12K | 2.5
P12Y | 1.8
P12I | 2.23
P12E | 2.55
